For two molecules, pKd results are on record in paper PMC9482650, “Quantitative fragmentomics allow affinity mapping of interactomes” (Nature Communications, 2022).

T1: MPP7, Q5T2T1
T1 sequence (Q5T2T1 134-230, limits assumed, looked up): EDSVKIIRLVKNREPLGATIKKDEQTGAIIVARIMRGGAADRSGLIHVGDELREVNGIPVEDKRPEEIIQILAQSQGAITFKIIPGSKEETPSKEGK

T2: MPDZ_5, O75970
T2 sequence (O75970 695-796, limits assumed, looked up): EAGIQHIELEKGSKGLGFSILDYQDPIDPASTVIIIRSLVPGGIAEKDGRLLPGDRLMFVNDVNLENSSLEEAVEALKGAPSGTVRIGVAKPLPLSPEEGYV

T3: LIN7B, Q9HAP6
T3 sequence (Q9HAP6 88-185, limits assumed, looked up): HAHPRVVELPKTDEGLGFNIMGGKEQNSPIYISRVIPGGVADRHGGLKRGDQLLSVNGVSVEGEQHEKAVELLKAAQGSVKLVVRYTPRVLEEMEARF

T4: GRIP1_5, Q9Y3R0
T4 sequence (Q9Y3R0 568-668, limits assumed, looked up): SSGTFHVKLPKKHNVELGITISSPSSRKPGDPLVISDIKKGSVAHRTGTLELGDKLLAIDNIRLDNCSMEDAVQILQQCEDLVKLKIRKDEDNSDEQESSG

T5: TX1BP3, O14907
T5 sequence (O14907 10-122, limits assumed, looked up): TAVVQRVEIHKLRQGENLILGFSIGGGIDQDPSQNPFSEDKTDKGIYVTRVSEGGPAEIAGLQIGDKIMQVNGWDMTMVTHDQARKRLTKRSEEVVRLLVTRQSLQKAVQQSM

T6: APBA2_2, Q99767
T6 sequence (Q99767 654-744, limits assumed, looked up): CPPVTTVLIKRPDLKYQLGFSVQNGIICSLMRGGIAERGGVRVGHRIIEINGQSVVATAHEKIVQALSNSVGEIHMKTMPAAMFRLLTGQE

T7: NHERF3_4, Q5T2W1
T7 sequence (Q5T2W1 373-468, limits assumed, looked up): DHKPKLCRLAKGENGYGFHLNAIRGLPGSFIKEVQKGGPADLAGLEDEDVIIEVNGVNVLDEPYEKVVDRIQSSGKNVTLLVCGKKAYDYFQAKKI

T8: SIPA1L2, Q9P2F8
T8 sequence (Q9P2F8 945-1036, limits assumed, looked up): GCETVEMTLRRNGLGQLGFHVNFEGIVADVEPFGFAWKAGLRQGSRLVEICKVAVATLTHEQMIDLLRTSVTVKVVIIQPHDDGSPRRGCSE

T9: PDZD7_3, Q9H5P4
T9 sequence (Q9H5P4 857-944, limits assumed, looked up): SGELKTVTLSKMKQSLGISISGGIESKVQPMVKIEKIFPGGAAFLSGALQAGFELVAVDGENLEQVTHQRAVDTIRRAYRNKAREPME

T10: ARHGAP21, Q5T5U3
T10 sequence (Q5T5U3 45-169, limits assumed, looked up): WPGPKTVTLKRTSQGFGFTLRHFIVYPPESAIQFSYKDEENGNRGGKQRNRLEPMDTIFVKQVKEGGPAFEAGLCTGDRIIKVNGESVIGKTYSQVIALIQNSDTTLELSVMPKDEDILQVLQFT

T11: APBA1_2, Q02410
T11 sequence (Q02410 742-832, limits assumed, looked up): T6 sequence (Q99767 654-744, limits assumed, looked up) with K10R, K15R, A59P, Q65H, A66I, S70A, F84Y, G89A

T12: MPP2, Q14168
T12 sequence (Q14168 180-250, limits assumed, looked up): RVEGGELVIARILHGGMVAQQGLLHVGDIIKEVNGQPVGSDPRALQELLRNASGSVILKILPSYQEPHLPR

T13: NHERF3_3, Q5T2W1
T13 sequence (Q5T2W1 238-333, limits assumed, looked up): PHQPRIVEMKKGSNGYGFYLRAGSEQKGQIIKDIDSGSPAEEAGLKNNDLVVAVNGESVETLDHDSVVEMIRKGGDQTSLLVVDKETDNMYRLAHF

T14: SNTB1, Q13884
T14 sequence (Q13884 107-205, limits assumed, looked up): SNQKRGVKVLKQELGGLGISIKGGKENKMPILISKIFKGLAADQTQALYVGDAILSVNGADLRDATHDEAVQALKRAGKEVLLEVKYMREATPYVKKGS

B1: MKNK1, Q9BUB5 (peptide)
chain: GEDRSPPTAL
B2: RPS6KA3, P51812 (peptide)
chain: GIKKITSTAL

Where a chain is given by its changes, count along the chain named.

Sequence of PTPN3, P26045 (P26045 505-587): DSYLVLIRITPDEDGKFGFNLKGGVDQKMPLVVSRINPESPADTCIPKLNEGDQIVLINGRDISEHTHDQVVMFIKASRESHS
Sequence of FRMPD2_2, Q68DX3 (Q68DX3 944-1038): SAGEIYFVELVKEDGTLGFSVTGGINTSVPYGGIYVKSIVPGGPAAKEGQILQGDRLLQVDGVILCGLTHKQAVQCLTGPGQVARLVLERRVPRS
Sequence of MAST2, Q6P0Q8 (Q6P0Q8 1099-1202): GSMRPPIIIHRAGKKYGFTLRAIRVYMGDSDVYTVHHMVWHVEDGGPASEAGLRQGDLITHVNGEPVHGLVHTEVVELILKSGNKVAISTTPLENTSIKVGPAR
Sequence of CASK, O14936 (O14936 487-570): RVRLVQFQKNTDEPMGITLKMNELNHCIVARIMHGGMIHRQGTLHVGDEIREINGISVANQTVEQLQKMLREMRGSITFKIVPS

In the first experiment the target is PDLIM1, O00151. In words: holdup assay. Further details: key: below the threshold = too weak to quantify, mostly under pKd 3.1 to 4. The settings on record: plain residues with an end cap or a label only (N-terminal biotin on a linker: ado-ado).
Sequence of PDLIM1, O00151 (O00151 1-87): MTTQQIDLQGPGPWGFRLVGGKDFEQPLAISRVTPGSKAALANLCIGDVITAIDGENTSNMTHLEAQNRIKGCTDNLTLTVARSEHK
As to B1, the pKd entry is reported as “below the threshold”.

Regarding B2, the pKd amounted to 3.48.

A further experiment addresses FRMPD2_2, Q68DX3. The experiment can be described thus: holdup assay. Further details: key: below the threshold = too weak to quantify, mostly under pKd 3.1 to 4. The following applies: plain residues with an end cap or a label only (N-terminal biotin on a linker: ado-ado).
In the case of B1, the pKd result is recorded as “below the threshold”.

Molecule B2 registered a negative-log Kd (pKd) of 3.5.

Another experiment has as its target PTPN3, P26045. In words: holdup assay. The following applies: plain residues with an end cap or a label only (N-terminal biotin on a linker: ado-ado). Further details: key: below the threshold = too weak to quantify, mostly under pKd 3.1 to 4.
B1: the pKd is 4.06.

In turn, B2 registered a pKd of 5.

Another experiment addresses T1, MPP7, Q5T2T1. In words: holdup assay. Further details: key: below the threshold = too weak to quantify, mostly under pKd 3.1 to 4. The settings on record: plain residues with an end cap or a label only (N-terminal biotin on a linker: ado-ado).
As for B1, the pKd entry is “below the threshold”.

As to B2, the pKd result is “below the threshold”.

The target of another experiment is Inadl_4, Q8NI35. The experiment can be described thus: holdup assay. Further details: key: below the threshold = too weak to quantify, mostly under pKd 3.1 to 4. The settings on record: plain residues with an end cap or a label only (N-terminal biotin on a linker: ado-ado).
Sequence of Inadl_4, Q8NI35 (Q8NI35 547-651): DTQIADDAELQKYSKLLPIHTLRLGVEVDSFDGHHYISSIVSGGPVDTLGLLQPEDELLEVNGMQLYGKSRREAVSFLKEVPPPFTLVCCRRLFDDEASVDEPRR
B1: the negative logarithm of the Kd (pKd) entry was “below the threshold”.

As to B2, the pKd entry is “below the threshold”.

A further experiment addresses MAST2, Q6P0Q8. The experiment can be described thus: holdup assay. Further details: key: below the threshold = too weak to quantify, mostly under pKd 3.1 to 4. The settings on record: plain residues with an end cap or a label only (N-terminal biotin on a linker: ado-ado).
For B1, the pKd came out at 4.85.

B2 returned a negative-log Kd (pKd) of 5.88.

The target in the next experiment is DLG4_1, P78352. In words: holdup assay. Further details: key: below the threshold = too weak to quantify, mostly under pKd 3.1 to 4. The following applies: plain residues with an end cap or a label only (N-terminal biotin on a linker: ado-ado).
Sequence of DLG4_1, P78352 (P78352 62-152): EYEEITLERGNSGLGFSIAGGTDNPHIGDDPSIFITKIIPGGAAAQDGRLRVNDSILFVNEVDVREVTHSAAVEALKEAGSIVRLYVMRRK
On to B1, for which the pKd result is recorded as “below the threshold”.

On to B2, for which the pKd is 3.76.

The target in another experiment is MAGI2_6, Q86UL8. In words: holdup assay. Further details: key: below the threshold = too weak to quantify, mostly under pKd 3.1 to 4. The following applies: plain residues with an end cap or a label only (N-terminal biotin on a linker: ado-ado).
Sequence of MAGI2_6, Q86UL8 (Q86UL8 1141-1229): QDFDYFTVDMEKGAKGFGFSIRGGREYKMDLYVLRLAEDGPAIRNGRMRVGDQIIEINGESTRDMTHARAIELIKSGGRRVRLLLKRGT
In the case of B1, the pKd stood at 3.57.

Turning to B2, the pKd stood at 4.08.

In another experiment the target is T2, MPDZ_5, O75970. The experiment can be described thus: holdup assay. The settings on record: plain residues with an end cap or a label only (N-terminal biotin on a linker: ado-ado). Further details: key: below the threshold = too weak to quantify, mostly under pKd 3.1 to 4.
Regarding B1, the pKd result is recorded as “below the threshold”.

On to B2, for which the pKd result was “below the threshold”.

The next experiment has as its target CASK, O14936. In words: holdup assay. Further details: key: below the threshold = too weak to quantify, mostly under pKd 3.1 to 4. The settings on record: plain residues with an end cap or a label only (N-terminal biotin on a linker: ado-ado).
Consider B1, for which the pKd entry is given as “below the threshold”.

In the case of B2, the pKd entry is “below the threshold”.

The target of a further experiment is T3, LIN7B, Q9HAP6. In words: holdup assay. Further details: key: below the threshold = too weak to quantify, mostly under pKd 3.1 to 4. The following applies: plain residues with an end cap or a label only (N-terminal biotin on a linker: ado-ado).
Turning to B1, the pKd result is reported as “below the threshold”.

For B2, the pKd result is listed as “below the threshold”.

The next experiment concerns the target T4, GRIP1_5, Q9Y3R0. In words: holdup assay. Further details: key: below the threshold = too weak to quantify, mostly under pKd 3.1 to 4. The settings on record: plain residues with an end cap or a label only (N-terminal biotin on a linker: ado-ado).
As to B1, the negative-log Kd (pKd) entry is reported as “below the threshold”.

With B2, the pKd result was “below the threshold”.

A further experiment concerns the target T5, TX1BP3, O14907. The experiment can be described thus: holdup assay. Further details: key: below the threshold = too weak to quantify, mostly under pKd 3.1 to 4. The settings on record: plain residues with an end cap or a label only (N-terminal biotin on a linker: ado-ado).
As for B1, the negative-log Kd (pKd) result is given as “below the threshold”.

In turn, B2 showed a pKd of 4.59.

Another experiment has as its target T6, APBA2_2, Q99767. The experiment can be described thus: holdup assay. The following applies: plain residues with an end cap or a label only (N-terminal biotin on a linker: ado-ado). Further details: key: below the threshold = too weak to quantify, mostly under pKd 3.1 to 4.
Take B1: the pKd entry is given as “below the threshold”.

Take B2: the negative-log Kd (pKd) result is on record as “below the threshold”.

Another experiment has as its target T7, NHERF3_4, Q5T2W1. In words: holdup assay. Further details: key: below the threshold = too weak to quantify, mostly under pKd 3.1 to 4. The following applies: plain residues with an end cap or a label only (N-terminal biotin on a linker: ado-ado).
As to B1, the pKd came to 3.7.

B2: the pKd was 5.4.

The target of a further experiment is GRIP2_4, Q9C0E4. The experiment can be described thus: holdup assay. The following applies: plain residues with an end cap or a label only (N-terminal biotin on a linker: ado-ado). Further details: key: below the threshold = too weak to quantify, mostly under pKd 3.1 to 4.
Sequence of GRIP2_4, Q9C0E4 (Q9C0E4 446-548): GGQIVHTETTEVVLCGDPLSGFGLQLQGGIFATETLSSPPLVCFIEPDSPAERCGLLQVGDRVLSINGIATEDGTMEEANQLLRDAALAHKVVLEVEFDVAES
Turning to B1, the pKd entry is “below the threshold”.

Turning to B2, the pKd result was “below the threshold”.

The target in a further experiment is T8, SIPA1L2, Q9P2F8. The experiment can be described thus: holdup assay. Further details: key: below the threshold = too weak to quantify, mostly under pKd 3.1 to 4. The settings on record: plain residues with an end cap or a label only (N-terminal biotin on a linker: ado-ado).
B1: the pKd result is recorded as “below the threshold”.

Regarding B2, the pKd result was “below the threshold”.

In another experiment the target is T9, PDZD7_3, Q9H5P4. The experiment can be described thus: holdup assay. Further details: key: below the threshold = too weak to quantify, mostly under pKd 3.1 to 4. The following applies: plain residues with an end cap or a label only (N-terminal biotin on a linker: ado-ado).
B1 yielded a pKd of 3.8.

Molecule B2 showed a pKd of 4.92.

A further experiment deals with T10, ARHGAP21, Q5T5U3. In words: holdup assay. Further details: key: below the threshold = too weak to quantify, mostly under pKd 3.1 to 4. The settings on record: plain residues with an end cap or a label only (N-terminal biotin on a linker: ado-ado).
With B1, the pKd entry was “below the threshold”.

Turning to B2, the pKd came out at 3.93.

The next experiment has as its target T11, APBA1_2, Q02410. The experiment can be described thus: holdup assay. Further details: key: below the threshold = too weak to quantify, mostly under pKd 3.1 to 4. The following applies: plain residues with an end cap or a label only (N-terminal biotin on a linker: ado-ado).
B1 had a pKd of 4.34.

Molecule B2 displayed a negative-log Kd (pKd) of 4.1.

A further experiment deals with ARHGEF12, Q9NZN5-2. The experiment can be described thus: holdup assay. Further details: key: below the threshold = too weak to quantify, mostly under pKd 3.1 to 4. The settings on record: plain residues with an end cap or a label only (N-terminal biotin on a linker: ado-ado).
Sequence of ARHGEF12, Q9NZN5-2 (Q9NZN5 other isoform, or with tags, fused parts or gaps): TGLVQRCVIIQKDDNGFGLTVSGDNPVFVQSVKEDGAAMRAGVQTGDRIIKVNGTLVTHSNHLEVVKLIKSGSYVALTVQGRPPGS
As to B1, the pKd entry is listed as “below the threshold”.

B2 showed a pKd of 5.58.

The target in the next experiment is T12, MPP2, Q14168. In words: holdup assay. Further details: key: below the threshold = too weak to quantify, mostly under pKd 3.1 to 4. The following applies: plain residues with an end cap or a label only (N-terminal biotin on a linker: ado-ado).
With B1, the pKd entry is reported as “below the threshold”.

In the case of B2, the negative-log Kd (pKd) result is reported as “below the threshold”.

The next experiment addresses T13, NHERF3_3, Q5T2W1. The experiment can be described thus: holdup assay. Further details: key: below the threshold = too weak to quantify, mostly under pKd 3.1 to 4. The settings on record: plain residues with an end cap or a label only (N-terminal biotin on a linker: ado-ado).
For B1, the pKd entry is given as “below the threshold”.

Turning to B2, the negative-log Kd (pKd) result is “below the threshold”.

A further experiment has as its target T14, SNTB1, Q13884. The experiment can be described thus: holdup assay. Further details: key: below the threshold = too weak to quantify, mostly under pKd 3.1 to 4. The settings on record: plain residues with an end cap or a label only (N-terminal biotin on a linker: ado-ado).
Regarding B1, the pKd turned out to be 3.51.

With B2, the negative-log Kd (pKd) is 4.23.
